Here are results for 1 substance from paper PMC7764402.

In this assay the target is Vorin-cat (C-terminal catalytic mART domain of Vorin), wild type (Erwinia amylovora ATCC BAA-2158). The experiment in a line: SEC; IMAC-purified Vorin-cat/VorinI (5 mg) on HiLoad 16/60 Superdex-200; fractions analysed by SDS-PAGE with Coomassie stain; dialysed against 50 mM Tris pH 7.5, 250 mM NaCl, 10% glycerol before the run.

Turning to “VorinI (Vorin Immunity protein) (natural protein)”, the stoichiometry N (VorinI per Vorin-cat) came to 1.
